The labels stand for the following.
B1: Storkhead-box protein 2, residues 64 to 141; numbered along this chain, Q9P2F5 (parent)
chain: SPISQSQFIPLGEILCLAISAMNSARKPVTQEALMEHLTTCFPGVPTPSQEILRHTLNTLVRERKIYPTPDGYFIVTP

± gives the uncertainty stated by the source.

In the series the parent is B1. Put plainly: abundance fitness (aPCA) (normalised: wild type 0, dead -1); higher = more abundant; growth selection in yeast, the domain comes from the species named. Particulars: Homo sapiens.
Take SPISQSQFIPLGEILCLAISAMNSARKPLTQEALMEHLTTCFPGVPTPSQEILRHTLNTLVRERKIYPTPDGYFIVTP [V29L]: the abundance fitness is -0.408 ± 0.041. Turning to SPISQSQFIPLGEILCLAISAMNSARKPNTQEALMEHLTTCFPGVPTPSQEILRHTLNTLVRERKIYPTPDGYFIVTP [V29N], the abundance fitness is -1.07 ± 0.44.

In the case of SPISQSQFIPLGEILCLAISAMNSARKPMTQEALMEHLTTCFPGVPTPSQEILRHTLNTLVRERKIYPTPDGYFIVTP [V29M], the abundance fitness was -0.278 ± 0.077. For SPISQSQFIPLGEILCLAISAMNSARKPHTQEALMEHLTTCFPGVPTPSQEILRHTLNTLVRERKIYPTPDGYFIVTP [V29H], the abundance fitness was -0.496 ± 0.11. In the case of SPISQSQFIPLGEILCLAISAMNSARKPGTQEALMEHLTTCFPGVPTPSQEILRHTLNTLVRERKIYPTPDGYFIVTP [V29G], the abundance fitness is -0.417 ± 0.033.

Regarding SPISQSQFIPLGEILCLAISAMNSARKPFTQEALMEHLTTCFPGVPTPSQEILRHTLNTLVRERKIYPTPDGYFIVTP [V29F], the abundance fitness is -0.213 ± 0.057. Take SPISQSQFIPLGEILCLAISAMNSARKPCTQEALMEHLTTCFPGVPTPSQEILRHTLNTLVRERKIYPTPDGYFIVTP [V29C]: the abundance fitness came to 0.02 ± 0.052.

Consider SPISQSQFIPLGEILCLAISAMNSARDPVTQEALMEHLTTCFPGVPTPSQEILRHTLNTLVRERKIYPTPDGYFIVTP [K27D], for which the abundance fitness is -0.235 ± 0.08. With SPISQSQFIPLGEILCLAISAMNSARMPVTQEALMEHLTTCFPGVPTPSQEILRHTLNTLVRERKIYPTPDGYFIVTP [K27M], the abundance fitness was -0.1 ± 0.058.

Regarding SPISQSQFIPLGEILCLAISAMNSARNPVTQEALMEHLTTCFPGVPTPSQEILRHTLNTLVRERKIYPTPDGYFIVTP [K27N], the abundance fitness was -0.156 ± 0.14.

Take SPISQSQFIPLGEILCLAISAMNSARAPVTQEALMEHLTTCFPGVPTPSQEILRHTLNTLVRERKIYPTPDGYFIVTP [K27A]: the abundance fitness is -0.077 ± 0.04. For SPISQSQFIPLGEILCLAISAMNSARVPVTQEALMEHLTTCFPGVPTPSQEILRHTLNTLVRERKIYPTPDGYFIVTP [K27V], the abundance fitness was -0.079 ± 0.035. As for SPISQSQFIPLGEILCLAISAMNSARQPVTQEALMEHLTTCFPGVPTPSQEILRHTLNTLVRERKIYPTPDGYFIVTP [K27Q], the abundance fitness worked out at 0.064 ± 0.077. As for SPISQSQFIPLGEILCLAISAMNSARIPVTQEALMEHLTTCFPGVPTPSQEILRHTLNTLVRERKIYPTPDGYFIVTP [K27I], the figure is -0.072 ± 0.091. As for SPISQSQFIPLGEILCLAISAMNSARFPVTQEALMEHLTTCFPGVPTPSQEILRHTLNTLVRERKIYPTPDGYFIVTP [K27F], the figure is -0.182 ± 0.078. On to SPISQSQFIPLGEILCLAISAMNSARPPVTQEALMEHLTTCFPGVPTPSQEILRHTLNTLVRERKIYPTPDGYFIVTP [K27P], for which the abundance fitness is -0.689 ± 0.084. As for SPISQSQFIPLGEILCLAISAMNSARTPVTQEALMEHLTTCFPGVPTPSQEILRHTLNTLVRERKIYPTPDGYFIVTP [K27T], the abundance fitness is 0.034 ± 0.043. For SPISQSQFIPLGEILCLAISAMNSARGPVTQEALMEHLTTCFPGVPTPSQEILRHTLNTLVRERKIYPTPDGYFIVTP [K27G], the abundance fitness is -0.132 ± 0.03. SPISQSQFIPLGEILCLAISAMNSARHPVTQEALMEHLTTCFPGVPTPSQEILRHTLNTLVRERKIYPTPDGYFIVTP [K27H]: the abundance fitness was -0.119 ± 0.084. Take SPISQSQFIPLGEILCLAISAMNSARWPVTQEALMEHLTTCFPGVPTPSQEILRHTLNTLVRERKIYPTPDGYFIVTP [K27W]: the abundance fitness was -0.184 ± 0.04. Regarding SPISQSQFIPLGEILCLAISAMNSARLPVTQEALMEHLTTCFPGVPTPSQEILRHTLNTLVRERKIYPTPDGYFIVTP [K27L], the abundance fitness is -0.12 ± 0.034.

As for SPISQSQFIPLGEILCLAISAMNSAREPVTQEALMEHLTTCFPGVPTPSQEILRHTLNTLVRERKIYPTPDGYFIVTP [K27E], the abundance fitness is -0.054 ± 0.075. Consider SPISQSQFIPLGEILCLAISAMNSARSPVTQEALMEHLTTCFPGVPTPSQEILRHTLNTLVRERKIYPTPDGYFIVTP [K27S], for which the abundance fitness was -0.045 ± 0.04. As for SPISQSQFIPLGEILCLAISAMNSPRKPVTQEALMEHLTTCFPGVPTPSQEILRHTLNTLVRERKIYPTPDGYFIVTP [A25P], the figure is -0.368 ± 0.061. For the variant SPISQSQFIPLGEILCLAISAMNSHRKPVTQEALMEHLTTCFPGVPTPSQEILRHTLNTLVRERKIYPTPDGYFIVTP [A25H], the abundance fitness is -0.001 ± 0.12.

As for SPISQSQFIPLGEILCLAISAMNSVRKPVTQEALMEHLTTCFPGVPTPSQEILRHTLNTLVRERKIYPTPDGYFIVTP [A25V], the abundance fitness is -0.033 ± 0.044. Consider SPISQSQFIPLGEILCLAISAMNSWRKPVTQEALMEHLTTCFPGVPTPSQEILRHTLNTLVRERKIYPTPDGYFIVTP [A25W], for which the abundance fitness was -0.189 ± 0.053. SPISQSQFIPLGEILCLAISAMNSLRKPVTQEALMEHLTTCFPGVPTPSQEILRHTLNTLVRERKIYPTPDGYFIVTP [A25L]: the abundance fitness was -0.026 ± 0.038. As for SPISQSQFIPLGEILCLAISAMNSKRKPVTQEALMEHLTTCFPGVPTPSQEILRHTLNTLVRERKIYPTPDGYFIVTP [A25K], the abundance fitness was -0.007 ± 0.079. As for SPISQSQFIPLGEILCLAISAMNSQRKPVTQEALMEHLTTCFPGVPTPSQEILRHTLNTLVRERKIYPTPDGYFIVTP [A25Q], the figure is -0.021 ± 0.073; as for SPISQSQFIPLGEILCLAISAMNSNRKPVTQEALMEHLTTCFPGVPTPSQEILRHTLNTLVRERKIYPTPDGYFIVTP [A25N], -0.068 ± 0.14; as for SPISQSQFIPLGEILCLAISAMNSRRKPVTQEALMEHLTTCFPGVPTPSQEILRHTLNTLVRERKIYPTPDGYFIVTP [A25R], -0.066 ± 0.045. As for SPISQSQFIPLGEILCLAISAMNSIRKPVTQEALMEHLTTCFPGVPTPSQEILRHTLNTLVRERKIYPTPDGYFIVTP [A25I], the abundance fitness is -0.053 ± 0.08. On to SPISQSQFIPLGEILCLAISAMNSSRKPVTQEALMEHLTTCFPGVPTPSQEILRHTLNTLVRERKIYPTPDGYFIVTP [A25S], for which the abundance fitness is -0.055 ± 0.038.

For SPISQSQFIPLGEILCLAISAMNSMRKPVTQEALMEHLTTCFPGVPTPSQEILRHTLNTLVRERKIYPTPDGYFIVTP [A25M], the abundance fitness was -0.048 ± 0.11.
